{
  "source": "patent US20230212319A1",
  "about": "“NOVEL ANTIGEN BINDING DOMAINS AND SYNTHETIC ANTIGEN RECEPTORS INCORPORATING THE SAME” (University of Southern California, priority 2020, published 2023)",
  "molecules": {"B1": {"name": "4088 (protein)", "chain": "MALPVTALLLPLALLLHAARPDIQMTQSPSSLSASVGDRVTITCKASDHINNWLAWYQQKPGQAPKLLIYGATTLETGVPSRFSGSGSGTDYTLTISSLQPEDFATYYCQQSWNTPWTFGQGTKLEIKRLEIQNPDPAVYQLRDSKSSDKSVCLFTDFDSQTNVSQSKDSDVYITDKCVLDMRSMDFKSNSAVAWSNKSDFACANAFNNSIIPEDTFFPSSDVPCDVKLVEKSFETDTNLNFQNLSVIGFRILLLKVAGFNLLMTLRLWSSRAKRSGSGVKQTLNFDLLKLAGDVESNPGPTSMDWIWRILFLVGAATGAHSGPQVQLQESGGGLAQAGGSLRLSCAASGRTFSMGWFRQAPGKEREFVAAITYSGGSPYYASSVRGRFTISRDNAKNTVYLQMNSLKPEDTAVYYCAANPTYGSDWNAENWGQGTQVTVSSGSGGGGSGGGGSGGGGSFEQVQLQQPGAELVKPGASVKMSCKASGYAFSSYWINWMKQKPGQGLEWIGQIYPGDGDTNYNGKFKGRATLTADTSSSTAYMQLSSLTSEDSAVYFCARSITTVVGCAMDYWGQGTSVTVSSTREDLKNVFPPEVAVFEPSKAEIAHTQKATLVCLATGFYPDHVELSWWVNGKEVHSGVCTDPQPLKEQPALNDSRYCLSSRLRVSATFWQNPRNHFRCQVQFYGLSENDEWTQDRAKPVTQIVSAEAWGRADCGITSASYHQGVLSATILYEILLGKATLYAVLVSALVLMAMVKRKDSRGRAKRSGSGATNFSLLKQAGDVEENPGPSRGHMTEYKPTVRLATRDDVPRAVRTLAAAFADYPATRHTVDPDRHIERVTELQELFLTRVGLDIGKVWVADDGAAVAVWTTPESVEAGAVFAEIGPRMAELSGSRLAAQQQMEGLLAPHRPKEPAWFLATVGVSPDHQGKGLGSAVVLPGVEAAERAGVPAFLETSAPRNLPFYERLGFTVTADVEVPEGPRTWCMTRKPGA", "modifications": "Synthetic Polynucloetide"}, "B2": {"name": "21997 (protein)", "chain": "MALPVTALLLPLALLLHAARPQLQLQESGPGLVKPSETLALTCNVSGGSISSSSYYWGWIRQPPGKRLEWIGSIYYSGSTYFNPSLKSRVTISVDTSKNQFSLKLSSVTAADTAVYYCAGGDYYGPVGQWPSDYRGQGTLVTVSSLEDLKNVFPPEVAVFEPSEAEISHTQKATLVCLATGFYPDHVELSWWVNGKEVHSGVCTDPQPLKEQPALNDSRYCLSSRLRVSATFWQNPRNHFRCQVQFYGLSENDEWTQDRAKPVTQIVSAEAWGRADCGFTSESYQQGVLSATILYEILLGKATLYAVLVSALVLMAMVKRKDSRGRAKRSGSGATNFSLLKQAGDVEENPGPTSMDWIWRILFLVGAATGAHSFEQVQLVESGGGLVQPGGSLRLSCAASGFTFTNHAMSWVRQAPGKGLELVSSISGNGRTTYYADSVKGRFTISRDISKNTLDLQMNSLRAEDTAVYYCAKDGGETLVDSRGQGTLVTVSSTRIQNPDPAVYQLRDSKSSDKSVCLFTDFDSQTNVSQSKDSDVYITDKCVLDMRSMDFKSNSAVAWSNKSDFACANAFNNSIIPEDTFFPSPESSCDVKLVEKSFETDTNLNFQNLSVIGFRILLLKVAGFNLLMTLRLWSSRAKRSGSGVKQTLNFDLLKLAGDVESNPGPSRGHMTEYKPTVRLATRDDVPRAVRTLAAAFADYPATRHTVDPDRHIERVTELQELFLTRVGLDIGKVWVADDGAAVAVWTTPESVEAGAVFAEIGPRMAELSGSRLAAQQQMEGLLAPHRPKEPAWFLATVGVSPDHQGKGLGSAVVLPGVEAAERAGVPAFLETSAPRNLPFYERLGFTVTADVEVPEGPRTWCMTRKPGA"}, "B3": {"name": "22691 (protein)", "chain": "MALPVTALLLPLALLLHAARPDIQMTQSPSSLSASVGDRVTITCRASQDISSYLNWYQQKPGKAPKLLIYYTSRLHSGVPSRFSGSGSGTDFTLTISSLQPEDFATYYCQQGNTLPYTFGQGTKVEIKRLEDLKNVFPPEVAVFEPSEAEISHTQKATLVCLATGFYPDHVELSWWVNGKEVHSGVCTDPQPLKEQPALNDSRYCLSSRLRVSATFWQNPRNHFRCQVQFYGLSENDEWTQDRAKPVTQIVSAEAWGRADCGFTSESYQQGVLSATILYEILLGKATLYAVLVSALVLMAMVKRKDSRGRAKRSGSGATNFSLLKQAGDVEENPGPTSMDWIWRILFLVGAATGAHSFEVQLVESGGGLVQPGGSLRLSCAASGFTFSDYFMSWVRQAPGKGLEWVATISNGGTYTYYPDSVKGRFTISRDNSKNTLYLQMNSLRAEDTAVYYCARFDGYIFDYWGQGTLVTVSSTRIQNPDPAVYQLRDSKSSDKSVCLFTDFDSQTNVSQSKDSDVYITDKCVLDMRSMDFKSNSAVAWSNKSDFACANAFNNSIIPEDTFFPSPESSCDVKLVEKSFETDTNLNFQNLSVIGFRILLLKVAGFNLLMTLRLWSSRAKRSGSGVKQTLNFDLLKLAGDVESNPGPSRGHMTEYKPTVRLATRDDVPRAVRTLAAAFADYPATRHTVDPDRHIERVTELQELFLTRVGLDIGKVWVADDGAAVAVWTTPESVEAGAVFAEIGPRMAELSGSRLAAQQQMEGLLAPHRPKEPAWFLATVGVSPDHQGKGLGSAVVLPGVEAAERAGVPAFLETSAPRNLPFYERLGFTVTADVEVPEGPRTWCMTRKPGA"}, "B4": {"name": "22687 (protein)", "chain": "B3 chain with S52N, Y117W, F385Y"}, "B5": {"name": "22694 (protein)", "chain": "B3 chain with S52N, Y117W"}, "B6": {"name": "22692 (protein)", "chain": "B3 chain with S52N, Y117W"}, "B7": {"name": "4089 (protein)", "chain": "MALPVTALLLPLALLLHAARPDIQMTQSPSSLSASVGDRVTITCKASDHINNWLAWYQQKPGQAPKLLIYGATTLETGVPSRFSGSGSGTDYTLTISSLQPEDFATYYCQQSWNTPWTFGQGTKLEIKRLEDLKNVFPPEVAVFEPSKAEIAHTQKATLVCLATGFYPDHVELSWWVNGKEVHSGVCTDPQPLKEQPALNDSRYCLSSRLRVSATFWQNPRNHFRCQVQFYGLSENDEWTQDRAKPVTQIVSAEAWGRADCGITSASYHQGVLSATILYEILLGKATLYAVLVSALVLMAMVKRKDSRGRAKRSGSGATNFSLLKQAGDVEENPGPTSMDWIWRILFLVGAATGAHSGPQVQLQESGGGLAQAGGSLRLSCAASGRTFSMGWFRQAPGKEREFVAAITYSGGSPYYASSVRGRFTISRDNAKNTVYLQMNSLKPEDTAVYYCAANPTYGSDWNAENWGQGTQVTVSSGSGGGGSGGGGSGGGGSFEQVQLQQPGAELVKPGASVKMSCKASGYAFSSYWINWMKQKPGQGLEWIGQIYPGDGDTNYNGKFKGRATLTADTSSSTAYMQLSSLTSEDSAVYFCARSITTVVGCAMDYWGQGTSVTVSSTRIQNPDPAVYQLRDSKSSDKSVCLFTDFDSQTNVSQSKDSDVYITDKCVLDMRSMDFKSNSAVAWSNKSDFACANAFNNSIIPEDTFFPSSDVPCDVKLVEKSFETDTNLNFQNLSVIGFRILLLKVAGFNLLMTLRLWSSRAKRSGSGVKQTLNFDLLKLAGDVESNPGPSRGHMTEYKPTVRLATRDDVPRAVRTLAAAFADYPATRHTVDPDRHIERVTELQELFLTRVGLDIGKVWVADDGAAVAVWTTPESVEAGAVFAEIGPRMAELSGSRLAAQQQMEGLLAPHRPKEPAWFLATVGVSPDHQGKGLGSAVVLPGVEAAERAGVPAFLETSAPRNLPFYERLGFTVTADVEVPEGPRTWCMTRKPGA", "modifications": "Synthetic Polynucloetide"}},
  "key": {"RAJI cells": {"tested_on": "RAJI cells", "assay": "JNG (Jurkat NFAT-GFP) cells expressing SAR: GFP induction on co-culture with RAJI"}, "DAUDI (CD20+) cells": {"tested_on": "DAUDI (CD20+) cells", "type": "cell-based"}, "RS411 cells": {"tested_on": "RS411 cells", "type": "cell-based"}, "[1]": {"assay": "JNG NFAT-GFP background GFP induction (tonic signaling)", "details": "JNG cells expressing construct, without target"}, "L363 cells": {"tested_on": "L363 cells", "assay": "JNG assay, co-culture with L363 cells", "type": "cell-based", "details": "co-culture with L363", "method_in_brief": "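Read-out is NFAT-driven GFP measured by flow cytometry after ~4–18 h co-culture of SAR-expressing JNG cells with target cells (E:T about 1:2). SARs were introduced by lentiviral spinfection and selected with puromycin or blasticidin when possible; scores (+/- to 5+ ≈ 5–50% GFP+) are relative to parental JNG cells.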"}, "PC3 cells": {"tested_on": "PC3 cells", "assay": "JNG NFAT-GFP induction on co-culture with PC3"}, "SKOV3 cells": {"tested_on": "SKOV3 cells", "type": "cell-based"}},
  "note": "Substitutions are numbered along the chain they refer to.",
  "data": [
    {"molecule": "B1", "values": [
      {"measurement": "GFP induction (JNG-GFP induction assay), RAJI WT", "setting": "RAJI cells", "value": "positive"},
      {"measurement": "GFP induction (JNG-GFP induction assay), DAUDI", "setting": "DAUDI (CD20+) cells", "value": "highly positive"},
      {"measurement": "GFP induction (JNG-GFP induction assay), RS;411", "setting": "RS411 cells", "value": "highly positive"}
    ]},
    {"molecule": "B2", "values": [
      {"measurement": "NFAT-GFP ASSAY: Self Activation (SA)", "setting": "[1]", "value": "Self Activation"},
      {"measurement": "NFAT-GFP ASSAY: L363", "setting": "L363 cells", "value": "+ (refer to approximately 5%, 10%, 20%, 30%, 40% and 50% GFP positive cells)"}
    ]},
    {"molecule": "B3", "values": [
      {"measurement": "NFAT-GFP ASSAY: PC-3", "setting": "PC3 cells", "value": "significant GFP induction"}
    ]},
    {"molecule": "B4", "values": [
      {"measurement": "NFAT-GFP ASSAY: PC-3", "setting": "PC3 cells", "value": "none to negligible GFP induction"},
      {"measurement": "NFAT-GFP ASSAY: SKOV-3", "setting": "SKOV3 cells", "value": "weaker but sufficient GFP induction"}
    ]},
    {"molecule": "B5", "values": [
      {"measurement": "NFAT-GFP ASSAY: SKOV-3", "setting": "SKOV3 cells", "value": "lowest GFP induction"}
    ]},
    {"molecule": "B6", "values": [
      {"measurement": "NFAT-GFP ASSAY: PC-3", "setting": "PC3 cells", "value": "none to negligible GFP induction"},
      {"measurement": "NFAT-GFP ASSAY: SKOV-3", "setting": "SKOV3 cells", "value": "weaker but sufficient GFP induction"}
    ]},
    {"molecule": "B7", "values": [
      {"measurement": "GFP induction (JNG-GFP induction assay), RAJI WT", "setting": "RAJI cells", "value": "positive"},
      {"measurement": "GFP induction (JNG-GFP induction assay), DAUDI", "setting": "DAUDI (CD20+) cells", "value": "highly positive"},
      {"measurement": "GFP induction (JNG-GFP induction assay), RS;411", "setting": "RS411 cells", "value": "highly positive"}
    ]}
  ]
}
